In patent US20250034621, “LOCKED APTAMER HAIRPIN INTEGRATED HYBRIDIZATION CHAIN REACTION FOR RAPID, INSTRUMENT-FREE BIOMARKER DETECTION” (The Texas A&m University System, published 2025):

Molecular target: cardiac troponin I (cTnI) (UniProt P19429 P19429:2-210)
Assay: cTnI-dependent opening of aptamer on magnetic particles, supernatant fluorescence of tagged HTG-H1 falls with cTnI; 0.5 ng/mL not distinguishable from blank; native PAGE HCR products also cTnI-dependent (p77, FIG. 6B); SERRS LOD 0.5 pg/mL in serum (p85), colorimetric hyperbranched HCR LOD 0.117 ng/mL (p104); high-salt buffer 20 mM Tris pH 7.6, 1000 mM NaCl, 5 mM KCl, 2 mM MgCl2, 1 mM CaCl2
Settings: tags: Genscript (SERRS studies); label: biotin (on streptavidin magnetic particles)

cardiac troponin I (cTnI), sequence (P19429 2-210, one chain of several): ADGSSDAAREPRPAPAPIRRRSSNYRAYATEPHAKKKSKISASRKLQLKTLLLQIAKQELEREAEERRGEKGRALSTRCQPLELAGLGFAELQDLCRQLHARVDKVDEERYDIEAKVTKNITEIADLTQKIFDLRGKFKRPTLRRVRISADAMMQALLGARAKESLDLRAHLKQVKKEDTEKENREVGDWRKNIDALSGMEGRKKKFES

B1: locked Tro4 aptamer-initiator (Tro4 + A8 spacer + HCR initiator + blocker) (ssDNA)
DNA: TTTTTCGTGCAGTACGCAACCTTTCTCATGCGCTGCCCCTCTTAAAAAAAAGCAGATCCTAAGCCGCACCCAATTAAGGGGCAGCGCATGAGAAAGGTTCCGTA
- binding result: binds
